Results taken from patent US20240092867A1 (UNIVERSITY OF CHICAGO, published 2024).

T1: placental growth factor (PlGF)-2 (human, UniProt P49763-3 19-170)
T1 construct: mature; Purchased in mature form
T1 sequence (looked up): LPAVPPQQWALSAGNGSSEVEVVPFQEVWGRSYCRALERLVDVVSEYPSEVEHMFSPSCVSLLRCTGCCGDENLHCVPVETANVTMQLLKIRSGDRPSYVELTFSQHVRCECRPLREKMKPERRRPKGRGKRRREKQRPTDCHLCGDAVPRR

B1: α3 3043-3067 Scr3 (peptide)
peptide: CRKKKRKKKALLLGIGDFNSEVTDG
notes: Scrambled peptide
B2: α3 3043-3067 Scr6 (peptide)
peptide: ALLLGIGRDFNKKKRKKKSEVTDGC
notes: Scrambled peptide
B3: α3 3043-3067 Scr2 (peptide)
peptide: RKTDALELVFLKKGGIGSKKCNDKR
notes: Scrambled peptide
B4: α3 3043-3067 Scr4 (peptide)
peptide: KKRKLVALTDFLGICGSENDGRKKK
notes: Scrambled peptide
B5: α3 3043-3067 Scr1 (peptide)
peptide: RLVKALKTDKFLGRIGSEKCNDKGK
notes: Scrambled peptide
B6: α3 3043-3067 Scr5 (peptide)
peptide: LVRAKLTDKFLGKRIGSKECNKDKG
notes: Scrambled peptide
B7: fibroblast growth factor (FGF)-18 (ligand, UniProt O76093 28-207, looked up)
chain: EENVDFRIHVENQTRARDDVSRKQLRLYQLYSRTSGKHIQVLGRRISARGEDGDKYAQLLVETDTFGSQVRIKGKETEFYLCMNRKGKLVGKPDGTSKECVFIEKVLENNYTALMSAKYSGWYVGFTKKGRPRKGPKTRENQQDVHFMKRYPKGQPELQKPFKYTTVTKRSRRIRPTHPA
notes: mature; Purchased in mature form
B8: bone morphogenetic protein (BMP)-2 (ligand, UniProt P12643 283-396, looked up)
chain: QAKHKQRKRLKSSCKRHPLYVDFSDVGWNDWIVAPPGYHAFYCHGECPFPLADHLNSTNHAIVQTLVNSVNSKIPKACCVPTELSAISMLYLDENEKVVLKNYQDMVVEGCGCR
notes: mature
B9: brain-derived neurotrophic factor (BDNF) (ligand, UniProt P23560 129-247, looked up)
chain: HSDPARRGELSVCDSISEWVTAADKKTAVDMSGGTVTVLEKVPVSKGQLKQYFYETKCNPMGYTKEGCRGIDKRHWNSQCRTTQSYVRALTMDSKKRIGWRFIRIDTSCVCTLTIKRGR
notes: as for B7
B10: neurotrophin (NT)-3 (ligand, UniProt P20783 139-257, looked up)
chain: YAEHKSHRGEYSVCDSESLWVTDKSSAIDIRGHQVTVLGEIKTGNSPVKQYFYETRCKEARPVKNGCRGIDDKHWNSQCKTSQTYVRALTSENNKLVGWRWIRIDTSCVCALSRKIGRT
notes: as for B7
B11: bone morphogenetic protein (BMP)-3 (ligand, UniProt P12645 363-472, looked up)
chain: QWIEPRNCARRYLKVDFADIGWSEWIISPKSFDAYYCSGACQFPMPKSLKPSNHATIQSIVRAVGVVPGIPEPCCVPEKMSSLSILFFDENKNVVLKVYPNMTVESCACR
notes: as for B7
B12: fibroblast growth factor (FGF)-10 (ligand, UniProt O15520 38-208, looked up)
chain: QALGQDMVSPEATNSSSSSFSSPSSAGRHVRSYNHLQGDVRWRKLFSFTKYFLKIEKNGKVSGTKKENCPYSILEITSVEIGVVAVKAINSNYYLAMNKKGKLYGSKEFNNDCKLKERIEENGYNTYASFNWQHNGRQMYVALNGKGAPRRGQKTRRKNTSAHFLPMVVHS
notes: as for B7
B13: C-X-C motif ligand (CXCL)-11 (ligand, UniProt O14625 22-94, looked up)
chain: FPMFKRGRCLCIGPGVKAVKVADIEKASIMYPSNNCDKIEVIITLKENKGQRCLNPKSKQARLIIKKVERKNF
notes: as for B7
B14: fibroblast growth factor (FGF)-7 (ligand, UniProt P21781 32-194, looked up)
chain: CNDMTPEQMATNVNCSSPERHTRSYDYMEGGDIRVRRLFCRTQWYLRIDKRGKVKGTQEMKNNYNIMEIRTVAVGIVAIKGVESEFYLAMNKEGKLYAKKECNEDCNFKELILENHYNTYASAKWTHNGGEMFVALNQKGIPVRGKKTKKEQKTAHFLPMAIT
notes: as for B7
B15: epidermal growth factor (EGF) (ligand, UniProt P01133 971-1023, looked up)
chain: NSDSECPLSHDGYCLHDGVCMYIEALDKYACNCVVGYIGERCQYRDLKWWELR
notes: as for B7
B16: TGF-β3 (ligand, UniProt P10600 301-412, looked up)
chain: ALDTNYCFRNLEENCCVRPLYIDFRQDLGWKWVHEPKGYYANFCSGPCPYLRSADTTHSTVLGLYNTLNPEASASPCCVPQDLEPLTILYYVGRTPKVEQLSNMVVKSCKCS
notes: as for B7

What follows are binders tested against T2, platelet-derived growth factor (PDGF)-BB (human, UniProt P01127 82-190) (assay: ELISA; peptide coated at 10 µg/mL, 1 µg/mL PDGF-BB in solution, bound GF detected with antibody [panel PDGF-BB]).
T2 construct: mature; Purchased in mature form
Protocol: (§1) FIG. 9. […] Affinity of GFs against chemically synthesized peptides that are scrambled (Scr) the sequence of α3₃₀₄₃₋₃₀₆₂. ELISA plates were coated with 10 μg/mL laminin peptide and further incubated with VEGF-A165, PlGF-2, PDGF-BB, or FGF-2. Concentrations were 1 μg/mL for GFs. Bound GF was detected with a specific antibody for each GF (n=4, mean±SEM). Statistical analyses were done using one-way ANOVA. *p<0.05, **p<0.01. Sequence of the peptides are described in Table 2.
(§2) ELISA tests were performed as described above. […] 1 μg/mL of BSA served as non-binding protein control. After blocking with 2% BSA PBS-0.05% Tween 20 (PBS-T) solution, 1 μg/mL of the recombinant human proteins (VEGF-A121, VEGF-A165, PlGF-1, PlGF-2, PDGF-BB or FGF-2) or 10 μg/mL of biotinylated heparin (Sigma-Aldrich) were added. Bound GF was detected with biotinylated antibodies for human VEGF, PlGF, PDGF-BB, or FGF-2 (R&D Systems). The antibodies were detected by streptavidin-HRP (R&D Systems).

Row | Binder | binding result
1 | B1 | binds
2 | B2 | binds
3 | B3 | binds
4 | B4 | binds
5 | B5 | binds
6 | B6 | binds

These binders were tested against T3, laminin-211 (human, UniProt P24043 23-3122; P07942 22-1786; P11047 34-1609) (assay: ELISA, GF coated, laminin 10 nM).
T3 construct: Full-length recombinant human laminin isoform (BioLamina); chains read from the isoform name
Protocol: (§3) ELISA tests were performed as previously reported. In brief, ELISA plates (med-binding, Greiner Bio-One) were coated with 50 nM GFs at 37° C. for more than 2 hrs. […] Bound laminin was detected with rabbit anti-human laminin γ1 chain antibody (1:1000 dilution, Assay biotech) or rabbit anti-human laminin α3 chain antibody (1:1000 dilution, Assay biotech). After incubation with biotinylated anti-rabbit antibody for 60 min at room temperature (RT), HRP conjugated streptavidin (Jackson ImmunoResearch) was added. After 60 min of incubation at RT, 50 μL TMB substrate (Sigma-Aldrich) was added. The reactions were stopped by adding 25 μL of 2 N H₂SO₄. Subsequently, the absorbance at 450 nm was measured with a reference of 570 nm.

Row | Binder | binding result
7 | B7 | binds
8 | B8 | binds
9 | B9 | binds
10 | B10 | binds
11 | B11 | binds
12 | B12 | binds
13 | B13 | no binding (tested: A450 0.1)
14 | B14 | binds

These binders were tested against T4, laminin-111 (human, UniProt P25391 18-3075; P07942 22-1786; P11047 34-1609) (assay: ELISA, GF coated, laminin 10 nM).
T4 construct: Full-length recombinant human laminin isoform (BioLamina); Chain composition is read from the isoform name
Protocol: as §3

Row | Binder | binding result
15 | B7 | binds
16 | B8 | binds
17 | B9 | binds
18 | B10 | binds
19 | B11 | binds
20 | B12 | binds
21 | B13 | no binding (tested: A450 0.1)
22 | B14 | binds

The binders below were run against T5, laminin-411 (human, UniProt Q16363 25-1823; P07942 22-1786; P11047 34-1609) (assay: ELISA, GF coated, laminin 10 nM).
T5 construct: Full-length recombinant human laminin isoform (BioLamina); chains read from the isoform name
Protocol: as §3

Row | Binder | binding result
23 | B7 | binds
24 | B8 | binds
25 | B9 | binds
26 | B10 | binds
27 | B11 | binds
28 | B12 | binds
29 | B13 | no binding (tested: A450 0.1)
30 | B14 | binds

These binders were tested against T6, laminin-521 (human, UniProt O15230 36-3695; P55268 33-1798; P11047 34-1609) (assay: ELISA, GF coated, laminin 10 nM).
T6 construct: Full-length recombinant human laminin isoform (BioLamina); chains read from the isoform name
Protocol: as §3

Row | Binder | binding result
31 | B7 | binds
32 | B8 | binds
33 | B9 | binds
34 | B10 | binds
35 | B11 | binds
36 | B12 | binds
37 | B13 | no binding (tested: A450 0.1)
38 | B14 | binds

These binders were tested against T7, laminin-511 (human, UniProt O15230 36-3695; P07942 22-1786; P11047 34-1609) (assay: ELISA, GF coated, laminin 10 nM).
T7 construct: Full-length recombinant human laminin isoform (BioLamina); chains read from the isoform name
Protocol: as §3

Row | Binder | binding result
39 | B7 | binds
40 | B8 | binds
41 | B9 | binds
42 | B10 | binds
43 | B11 | binds
44 | B12 | binds
45 | B13 | no binding (tested: A450 0.1)
46 | B14 | binds

The binders below were run against T8, laminin-421 (human, UniProt Q16363 25-1823; P55268 33-1798; P11047 34-1609) (assay: ELISA, GF coated, laminin 10 nM).
T8 construct: Full-length recombinant human laminin isoform (BioLamina); chains read from the isoform name
Protocol: as §3

T8 sequence (Q16363 25-1823 limits assumed, chain 1 of 3): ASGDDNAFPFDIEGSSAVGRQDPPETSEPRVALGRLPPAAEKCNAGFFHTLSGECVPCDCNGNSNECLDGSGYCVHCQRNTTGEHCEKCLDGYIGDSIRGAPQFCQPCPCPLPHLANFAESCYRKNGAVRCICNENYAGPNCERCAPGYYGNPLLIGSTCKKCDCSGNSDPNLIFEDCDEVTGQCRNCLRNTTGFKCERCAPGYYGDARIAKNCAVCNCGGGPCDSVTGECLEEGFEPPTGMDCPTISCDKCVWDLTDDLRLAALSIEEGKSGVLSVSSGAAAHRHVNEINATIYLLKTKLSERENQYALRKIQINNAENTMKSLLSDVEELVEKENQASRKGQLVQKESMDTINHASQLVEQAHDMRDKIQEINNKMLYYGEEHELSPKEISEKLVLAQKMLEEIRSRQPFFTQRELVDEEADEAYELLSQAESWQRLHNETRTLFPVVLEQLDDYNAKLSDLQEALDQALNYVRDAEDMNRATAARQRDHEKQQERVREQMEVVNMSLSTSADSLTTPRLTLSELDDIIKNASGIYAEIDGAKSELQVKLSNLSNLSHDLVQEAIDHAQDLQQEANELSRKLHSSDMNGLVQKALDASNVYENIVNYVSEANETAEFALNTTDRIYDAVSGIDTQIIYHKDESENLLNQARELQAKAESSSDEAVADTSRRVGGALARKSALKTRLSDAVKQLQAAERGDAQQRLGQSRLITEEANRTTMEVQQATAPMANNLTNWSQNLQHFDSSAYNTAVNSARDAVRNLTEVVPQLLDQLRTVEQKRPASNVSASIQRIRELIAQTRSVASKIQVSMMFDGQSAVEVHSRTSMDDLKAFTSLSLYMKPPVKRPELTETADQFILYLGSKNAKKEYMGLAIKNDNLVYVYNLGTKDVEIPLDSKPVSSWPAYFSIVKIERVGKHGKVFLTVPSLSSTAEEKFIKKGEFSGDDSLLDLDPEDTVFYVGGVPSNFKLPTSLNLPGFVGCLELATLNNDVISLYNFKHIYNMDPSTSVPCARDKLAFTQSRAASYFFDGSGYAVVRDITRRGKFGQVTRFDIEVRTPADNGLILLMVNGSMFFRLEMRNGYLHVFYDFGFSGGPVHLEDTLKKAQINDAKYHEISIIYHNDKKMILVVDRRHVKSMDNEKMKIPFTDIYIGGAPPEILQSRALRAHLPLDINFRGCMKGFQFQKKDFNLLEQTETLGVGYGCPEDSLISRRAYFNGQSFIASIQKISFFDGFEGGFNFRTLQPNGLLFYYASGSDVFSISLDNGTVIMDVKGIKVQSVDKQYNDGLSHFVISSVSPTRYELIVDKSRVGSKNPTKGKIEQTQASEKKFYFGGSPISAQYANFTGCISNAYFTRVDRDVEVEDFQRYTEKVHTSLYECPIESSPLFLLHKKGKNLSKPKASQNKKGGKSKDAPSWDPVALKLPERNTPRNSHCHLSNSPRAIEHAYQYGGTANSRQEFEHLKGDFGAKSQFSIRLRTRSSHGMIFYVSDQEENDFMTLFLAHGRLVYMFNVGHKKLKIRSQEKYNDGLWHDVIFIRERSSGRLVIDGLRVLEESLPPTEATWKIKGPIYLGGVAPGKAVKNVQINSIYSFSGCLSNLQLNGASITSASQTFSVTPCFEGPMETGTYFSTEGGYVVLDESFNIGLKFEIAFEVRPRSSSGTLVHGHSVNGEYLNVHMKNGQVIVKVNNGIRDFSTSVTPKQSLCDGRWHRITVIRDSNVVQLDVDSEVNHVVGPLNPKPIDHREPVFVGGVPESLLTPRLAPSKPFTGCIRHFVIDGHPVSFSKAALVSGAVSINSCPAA
T8 sequence (P55268 33-1798 limits assumed, chain 2 of 3): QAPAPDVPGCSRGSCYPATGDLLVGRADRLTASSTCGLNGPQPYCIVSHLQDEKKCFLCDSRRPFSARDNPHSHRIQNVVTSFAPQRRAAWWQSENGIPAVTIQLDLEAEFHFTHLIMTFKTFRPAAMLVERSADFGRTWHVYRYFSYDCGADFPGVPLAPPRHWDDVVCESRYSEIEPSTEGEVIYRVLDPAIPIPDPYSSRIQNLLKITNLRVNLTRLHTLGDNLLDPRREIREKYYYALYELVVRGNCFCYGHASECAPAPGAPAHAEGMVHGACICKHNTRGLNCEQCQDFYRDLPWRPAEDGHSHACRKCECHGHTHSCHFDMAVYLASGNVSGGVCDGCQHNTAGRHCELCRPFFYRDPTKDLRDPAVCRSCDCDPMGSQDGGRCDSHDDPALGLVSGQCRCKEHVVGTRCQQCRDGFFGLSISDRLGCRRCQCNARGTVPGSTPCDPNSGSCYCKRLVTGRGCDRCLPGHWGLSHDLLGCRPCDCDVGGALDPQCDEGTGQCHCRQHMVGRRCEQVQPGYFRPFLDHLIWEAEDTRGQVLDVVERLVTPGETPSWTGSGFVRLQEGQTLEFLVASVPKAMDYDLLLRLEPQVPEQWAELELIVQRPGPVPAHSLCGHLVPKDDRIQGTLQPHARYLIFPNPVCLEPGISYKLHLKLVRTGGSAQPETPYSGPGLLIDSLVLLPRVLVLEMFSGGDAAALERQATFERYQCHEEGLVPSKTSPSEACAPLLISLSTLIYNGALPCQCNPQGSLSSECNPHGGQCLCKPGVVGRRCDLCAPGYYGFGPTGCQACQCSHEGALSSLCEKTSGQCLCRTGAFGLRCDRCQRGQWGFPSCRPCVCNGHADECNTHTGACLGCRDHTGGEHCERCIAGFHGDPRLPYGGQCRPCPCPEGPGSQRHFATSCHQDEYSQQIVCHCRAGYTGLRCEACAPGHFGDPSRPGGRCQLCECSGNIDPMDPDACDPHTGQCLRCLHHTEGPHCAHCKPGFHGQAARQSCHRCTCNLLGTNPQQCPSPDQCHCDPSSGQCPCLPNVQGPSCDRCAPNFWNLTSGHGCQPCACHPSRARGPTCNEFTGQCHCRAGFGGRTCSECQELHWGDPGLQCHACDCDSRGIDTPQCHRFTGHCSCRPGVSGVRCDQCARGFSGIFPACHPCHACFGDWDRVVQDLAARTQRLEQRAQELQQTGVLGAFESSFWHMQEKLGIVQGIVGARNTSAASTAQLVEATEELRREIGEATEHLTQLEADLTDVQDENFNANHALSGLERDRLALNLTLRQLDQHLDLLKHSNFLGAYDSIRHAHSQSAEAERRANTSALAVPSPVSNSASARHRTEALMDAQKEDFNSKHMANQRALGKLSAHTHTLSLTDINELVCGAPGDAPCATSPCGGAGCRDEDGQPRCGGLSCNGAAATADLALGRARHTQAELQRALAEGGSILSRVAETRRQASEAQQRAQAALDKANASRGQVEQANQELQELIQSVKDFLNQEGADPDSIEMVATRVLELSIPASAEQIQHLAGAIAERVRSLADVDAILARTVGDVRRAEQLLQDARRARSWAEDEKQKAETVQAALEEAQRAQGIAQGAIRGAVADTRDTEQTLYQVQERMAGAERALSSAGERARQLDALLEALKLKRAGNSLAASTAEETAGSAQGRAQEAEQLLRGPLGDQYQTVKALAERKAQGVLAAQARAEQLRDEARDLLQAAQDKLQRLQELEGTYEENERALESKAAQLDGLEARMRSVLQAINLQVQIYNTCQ
T8 sequence (P11047 34-1609 limits assumed, chain 3 of 3): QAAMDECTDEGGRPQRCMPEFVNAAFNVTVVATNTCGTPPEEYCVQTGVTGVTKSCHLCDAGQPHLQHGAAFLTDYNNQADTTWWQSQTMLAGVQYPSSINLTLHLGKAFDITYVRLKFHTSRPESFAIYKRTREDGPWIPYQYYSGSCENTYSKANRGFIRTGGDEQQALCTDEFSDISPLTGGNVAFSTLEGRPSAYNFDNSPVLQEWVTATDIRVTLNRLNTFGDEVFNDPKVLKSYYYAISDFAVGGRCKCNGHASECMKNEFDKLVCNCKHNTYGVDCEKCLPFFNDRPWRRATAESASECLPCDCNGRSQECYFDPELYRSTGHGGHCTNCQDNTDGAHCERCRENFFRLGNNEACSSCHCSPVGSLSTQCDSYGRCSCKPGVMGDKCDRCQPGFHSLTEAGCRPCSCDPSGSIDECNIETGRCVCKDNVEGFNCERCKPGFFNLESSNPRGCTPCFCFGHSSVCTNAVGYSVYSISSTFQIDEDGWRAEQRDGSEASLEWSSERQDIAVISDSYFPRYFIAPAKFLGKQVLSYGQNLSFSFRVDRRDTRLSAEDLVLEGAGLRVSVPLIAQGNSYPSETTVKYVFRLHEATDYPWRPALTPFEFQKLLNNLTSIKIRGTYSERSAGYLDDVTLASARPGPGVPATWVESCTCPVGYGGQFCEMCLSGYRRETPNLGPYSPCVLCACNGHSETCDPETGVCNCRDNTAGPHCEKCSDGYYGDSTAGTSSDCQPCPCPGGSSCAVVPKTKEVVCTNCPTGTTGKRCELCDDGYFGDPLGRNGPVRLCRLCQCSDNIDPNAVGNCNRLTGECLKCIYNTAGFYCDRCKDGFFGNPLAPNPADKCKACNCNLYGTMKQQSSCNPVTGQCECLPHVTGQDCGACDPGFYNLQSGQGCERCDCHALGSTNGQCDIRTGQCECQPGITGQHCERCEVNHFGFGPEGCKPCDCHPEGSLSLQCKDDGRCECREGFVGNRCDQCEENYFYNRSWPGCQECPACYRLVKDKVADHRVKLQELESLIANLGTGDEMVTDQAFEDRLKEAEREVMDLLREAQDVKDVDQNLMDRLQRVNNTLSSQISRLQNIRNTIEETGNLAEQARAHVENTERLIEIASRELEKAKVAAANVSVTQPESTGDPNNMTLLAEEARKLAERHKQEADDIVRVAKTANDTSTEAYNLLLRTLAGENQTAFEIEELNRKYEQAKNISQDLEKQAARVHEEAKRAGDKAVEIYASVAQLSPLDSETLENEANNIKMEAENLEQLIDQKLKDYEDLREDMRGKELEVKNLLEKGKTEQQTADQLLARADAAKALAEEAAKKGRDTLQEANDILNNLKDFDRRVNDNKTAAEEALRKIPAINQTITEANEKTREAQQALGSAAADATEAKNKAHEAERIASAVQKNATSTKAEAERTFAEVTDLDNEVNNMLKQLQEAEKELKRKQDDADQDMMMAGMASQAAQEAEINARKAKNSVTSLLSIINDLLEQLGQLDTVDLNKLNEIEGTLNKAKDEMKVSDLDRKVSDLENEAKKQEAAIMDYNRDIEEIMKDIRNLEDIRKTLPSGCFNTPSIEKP

Row | Binder | binding result
47 | B7 | binds
48 | B8 | binds
49 | B9 | binds
50 | B10 | binds
51 | B11 | binds
52 | B12 | binds
53 | B13 | no binding (tested: A450 0.1)
54 | B14 | binds

The binders below were run against T1, placental growth factor (PlGF)-2 (assay: ELISA; peptide coated at 10 µg/mL, 1 µg/mL PlGF-2 in solution, bound GF detected with antibody [panel PlGF-2]).
Protocol: as §1, §2

Row | Binder | binding result
55 | B1 | binds
56 | B2 | binds
57 | B3 | binds
58 | B4 | binds
59 | B5 | binds
60 | B6 | binds

Each binder was assayed against T9, vascular endothelial growth factor (VEGF)-A165 (human, UniProt P15692-4 27-191) (assay: ELISA; peptide coated at 10 µg/mL, 1 µg/mL VEGF-A165 in solution, bound GF detected with antibody [panel VEGF-A165]).
T9 construct: mature; Purchased in mature form, not glycosylated
Protocol: as §1, §2

Row | Binder | binding result
61 | B1 | binds
62 | B2 | binds
63 | B3 | binds
64 | B4 | binds
65 | B5 | binds
66 | B6 | binds

Each binder was assayed against T10, human plasma-derived vWF (human, UniProt P04275 764-2813) (assay: ELISA, GF coated 50 nM, vWF 1 µg/mL).
T10 construct: mature; also called plasma-derived purified vWF; von Willebrand factor
Protocol: ELISA tests were performed as previously reported1. In brief, ELISA plates (med-binding, Greiner Bio-One) were coated with 50 nM GFs at 37° C. for 2 hrs. […] Then, HRP conjugated goat anti-rabbit antibody (Jackson ImmunoResearch) was added. After 60 min of incubation, 50 μL TMB substrate (Sigma-Aldrich) was added. The reaction was stopped by adding 25 μL of 2N H2SO4. Subsequently, the absorbance at 450 nm was measured and subtracted the absorbance at 570 nm.

Row | Binder | binding result
67 | B7 | binds
68 | B8 | binds
69 | B10 | binds
70 | B15 | no binding
71 | B13 | binds
72 | B14 | binds
73 | B16 | no binding

The binders below were run against T11, fibroblast growth factor (FGF)-2 (human, UniProt P09038 143-288) (assay: ELISA; peptide coated at 10 µg/mL, 1 µg/mL FGF-2 in solution, bound GF detected with antibody [panel FGF-2]).
T11 construct: mature; Purchased in mature form
Protocol: as §1, §2

Row | Binder | binding result
74 | B1 | binds
75 | B2 | binds
76 | B3 | binds
77 | B4 | binds
78 | B5 | binds
79 | B6 | binds
